Source: the supplement of paper PMC11246515
± gives the standard deviation of the averaged measurements.

Experiment: total protein half-life in vivo (active degradation + dilution); higher = more stable protein
[1] = E. coli NCM3722 delta-clpP delta-lon delta-hslV, growth: N-lim chemostat, doubling time 6 h
[2] = E. coli NCM3722 delta-clpP, growth: N-lim chemostat, doubling time 6 h
[3] = E. coli NCM3722 delta-hslV, growth: N-lim chemostat, doubling time 6 h
[4] = E. coli NCM3722 delta-lon, growth: N-lim chemostat, doubling time 6 h
[5] = E. coli NCM3722 delta-smpB, growth: N-lim chemostat, doubling time 6 h
[6] = wild type E. coli NCM3722, growth: C-lim chemostat, doubling time 3 h
[7] = wild type E. coli NCM3722, growth: C-lim chemostat, doubling time 6 h
[8] = wild type E. coli NCM3722, growth: C-lim chemostat, doubling time 12 h
[9] = wild type E. coli NCM3722, growth: N-lim chemostat, doubling time 6 h
[10] = wild type E. coli NCM3722, growth: N-lim chemostat, doubling time 12 h
[11] = wild type E. coli NCM3722, growth: P-lim chemostat, doubling time 6 h
[12] = wild type E. coli NCM3722, growth: P-lim chemostat, doubling time 12 h

Sequence | total protein half-life in vivo [1] [h] | total protein half-life in vivo [2] [h] | total protein half-life in vivo [3] [h] | total protein half-life in vivo [4] [h] | total protein half-life in vivo [5] [h] | total protein half-life in vivo [6] [h] | total protein half-life in vivo [7] [h] | total protein half-life in vivo [8] [h] | total protein half-life in vivo [9] [h] | total protein half-life in vivo [10] [h] | total protein half-life in vivo [11] [h] | total protein half-life in vivo [12] [h]
MEIYENENDQVEAVKRFFAENGKALAVGVILGVGALIGWRYWNSHQVDSARSASLAYQNAVTAVSEGKPDSIPAAEKFAAENKNTYGALASLELAQQFVDKNELEKAAAQLQQGLADTSDENLKAVINLRLARVQVQLKQADAALKTLDTIKGEGWAAIVADLRGEALLSKGDKQGARSAWEAGVKSDVTPALSEMMQMKINNLSI | 5.43 ± 0.11 | 5.4 ± 0.35 | 5.99 ± 0.76 | 6.64 ± 0.78 | 5.52 ± 0.16 | 2.83 ± 0.14 | 4.7 ± 0.38 | 10.3 ± 0.96 | 5.8 ± 0.6 | 11.9 ± 0.17 | 4.55 ± 0.6 | 8.84 ± 0.18
MHITLRQLEVFAEVLKSGSTTQASVMLALSQSAVSAALTDLEGQLGVQLFDRVGKRLVVNEHGRLLYPRALALLEQAVEIEQLFREDNGAIRIYASSTIGNYILPAVIARYRHDYPQLPIELSVGNSQDVMQAVLDFRVDIGFIEGPCHSTEIISEPWLEDELVVFAAPTSPLARGPVTLEQLAAAPWILRERGSGTREIVDYLLLSHLPKFEMAMELGNSEAIKHAVRHGLGISCLSRRVIEDQLQAGTLSEVAVPLPRLMRTLWRIHHRQKHLSNALRRFLDYCDPANVPR [P0ACR4] | 5.84 ± 0.54 | 7.58 | 5.48 | 5.76 ± 0.15 | 6.21 | 2.32 | 5.78 ± 0.65 | 13 | 4.98 ± 0.021 | 9.4289 ± 0.0056 | 5.59 ± 0.33 | 10.5 ± 1.9
MLEEYRKHVAERAAEGIAPKPLDANQMAALVELLKNPPAGEEEFLLDLLTNRVPPGVDEAAYVKAGFLAAIAKGEAKSPLLTPEKAIELLGTMQGGYNIHPLIDALDDAKLAPIAAKALSHTLLMFDNFYDVEEKAKAGNEYAKQVMQSWADAEWFLNRPALAEKLTVTVFKVTGETNTDDLSPAPDAWSRPDIPLHALAMLKNAREGIEPDQPGVVGPIKQIEALQQKGFPLAYVGDVVGTGSSRKSATNSVLWFMGDDIPHVPNKRGGGLCLGGKIAPIFFNTMEDAGALPIEVDVSNLNMGDVIDVYPYKGEVRNHETGELLATFELKTDVLIDEVRAGGRIPLIIGRGLTTKAREALGLPHSDVFRQAKDVAESDRGFSLAQKMVGRACGVKGIRPGAYCEPKMTSVGSQDTTGPMTRDELKDLACLGFSADLVMQSFCHTAAYPKPVDVNTHHTLPDFIMNRGGVSLRPGDGVIHSWLNRMLLPDTVGTGGDSHTRFPIGISFPAGSGLVAFAAATGVMPLDMPESVLVRFKGKMQPGITLRDLVHAIPLYAIKQGLLTVEKKGKKNIFSGRILEIEGLPDLKVEQAFELTDASAERSAAGCTIKLNKEPIIEYLNSNIVLLKWMIAEGYGDRRTLERRIQGMEKWLANPELLEADADAEYAAVIDIDLADIKEPILCAPNDPDDARPLSAVQGEKIDEVFIGSCMTNIGHFRAAGKLLDAHKGQLPTRLWVAPPTRMDAAQLTEEGYYSVFGKSGARIEIPGCSLCMGNQARVADGATVVSTSTRNFPNRLGTGANVFLASAELAAVAALIGKLPTPEEYQTYVAQVDKTAVDTYRYLNFNQLSQYTEKADGVIFQTAV | 5.12 ± 0.25 | 3.86 ± 0.1 | 3.56 ± 0.021 | 3.3 ± 0.063 | 2.96 ± 0.046 | 2.579 ± 0.021 | 4.71 ± 0.057 | 7.2 ± 0.21 | 3.578 ± 0.02 | 4.92 ± 0.14 | 3.56 ± 0.094 | 5.84 ± 0.098
MKSATSAQRPYQEVGAMIRDLIIKTPYNPGERLPPEREIAEMLDVTRTVVREALIMLEIKGLVEVRRGAGIYVLDNSGSQNTDSPDANVCNDAGPFELLQARQLLESNIAEFAALQATREDIVKMRQALQLEERELASSAPGSSESGDMQFHLAIAEATHNSMLVELFRQSWQWRENNPMWIQLHSHLDDSLYRKEWLGDHKQILAALIKKDARAAKLAMWQHLENVKQRLLEFSNVDDIYFDGYLFDSWPLDKVDA | 4.94 ± 0.91 | 4.94 ± 0.29 | 2.75 ± 0.15 | 3.04 ± 0.38 | 2.82 ± 0.23 | 2.21 ± 0.16 | 3.86 ± 0.058 | 5.88 ± 0.11 | 2.83 | 3.494 ± 0.022 | 3.22 ± 0.098 | 5.72 ± 0.14
MTKLQLKYRELKIISVIAASENISHAATVLGIAQANVSKYLADFESKVGLKVFDRTTRQLMLTPFGTALLPYINDMLDRNEQLNNFIADYKHEKRGRVTIYAPTGIITYLSKHVIDKIKDIGDITLSLKTCNLERNAFYEGVEFPDDCDVLISYAPPKDESLVASFITQYAVTAYASQRYLEKHPISRPDELEHHSCILIDSMMIDDANIWRFNVAGSKEVRDYRVKGNYVCDNTQSALELARNHLGIVFAPDKSVQSDLQDGTLVPCFQQPYEWWLDLVAIFRKREYQPWRVQYVLDEMLREIRHQLAQSQQLRPEQAAESED | 5.588 ± 0.0059 | 5.07 ± 0.4 | 4.7 ± 0.45 | 4.98 ± 0.36 | 4.54 ± 0.47 | 2.74 ± 0.18 | – | 10.9 ± 2 | 4.15 ± 0.18 | 7.04 ± 0.43 | 6.03 ± 0.88 | 10.1 ± 0.15
